Experimental data: article PMC5884726 (Structure (London, England : 1993), 2018)

Target: (UreABC)3 urease apoprotein (Klebsiella aerogenes, UniProt P18316 1-100; P18315 1-106; P18314 1-567)
Experiment: native MS

Chain of (UreABC)3 urease apoprotein (P18316 whole entry, chain 1 of 3): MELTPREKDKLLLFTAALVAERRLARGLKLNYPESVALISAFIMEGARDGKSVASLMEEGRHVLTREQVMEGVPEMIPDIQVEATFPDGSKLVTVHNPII
Chain of (UreABC)3 urease apoprotein (P18315 whole entry, chain 2 of 3): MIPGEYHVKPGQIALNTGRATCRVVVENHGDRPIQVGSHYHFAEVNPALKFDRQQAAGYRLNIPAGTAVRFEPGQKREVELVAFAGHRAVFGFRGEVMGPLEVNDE
Chain of (UreABC)3 urease apoprotein (P18314 whole entry, chain 3 of 3): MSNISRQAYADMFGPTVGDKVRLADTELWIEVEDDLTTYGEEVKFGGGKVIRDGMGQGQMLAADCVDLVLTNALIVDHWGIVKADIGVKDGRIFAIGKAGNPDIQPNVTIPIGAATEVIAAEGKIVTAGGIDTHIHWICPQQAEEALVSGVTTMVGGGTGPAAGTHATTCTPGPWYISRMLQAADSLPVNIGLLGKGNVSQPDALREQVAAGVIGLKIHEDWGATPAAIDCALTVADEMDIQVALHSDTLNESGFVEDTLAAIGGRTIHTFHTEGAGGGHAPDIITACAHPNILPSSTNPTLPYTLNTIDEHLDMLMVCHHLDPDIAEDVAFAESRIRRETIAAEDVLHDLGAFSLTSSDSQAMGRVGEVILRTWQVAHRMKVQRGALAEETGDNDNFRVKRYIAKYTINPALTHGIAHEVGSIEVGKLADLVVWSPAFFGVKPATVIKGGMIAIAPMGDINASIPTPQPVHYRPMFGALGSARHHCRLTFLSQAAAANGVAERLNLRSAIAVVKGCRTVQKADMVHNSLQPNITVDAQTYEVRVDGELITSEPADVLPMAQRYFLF

B1: maltose binding protein-UreD fusion protein (MBP-UreD) (natural protein, Klebsiella aerogenes, UniProt Q09063 1-270, looked up)
chain: MLPPLKKGWQATLDLRFHQAGGKTVLASAQHVGPLTVQRPFYPEEETCHLYLLHPPGGIVGGDELTISAHLAPGCHTLITMPGASKFYRSSGAQALVRQQLTLAPQATLEWLPQDAIFFPGANARLFTTFHLCASSRLLAWDLLCLGRPVIGETFSHGTLSNRLEVWVDNEPLLVERLHLQEGELSSIAERPWVGTLLCYPATDALLDGVRDALAPLGLYAGASLTDRLLTVRFLSDDNLICQRVMRDVWQFLRPHLTGKSPVLPRIWLT
  binding result: binds
